This passage reports OD results from patent US5858646.

In the assay the target is uncleaved ~95 kD pol gene product of recombinant AcNPV-HIVYKpol (HIV-1 pol polypeptide lacking the first 91 amino acids at the NH2-terminus of the HIV-pol protease) (HIV-1). In words: ELISA on plates coated with pol, no primary antibody, read at 450 nm. On the technique in general: An ELISA detects its analyte on a solid surface through an enzyme-linked reagent.

“goat anti-human Ig linked to horse radish peroxidase (Tago Diagnostics, cat 2393) (tool reagent)”: the OD is less than 0.1 OD.
